From the nanobody polyreactivity screen of Harvey et al. (2022)

Assay: yeast display, Sf9 membrane polyspecificity reagent, FACS + sequencing; frameworks hold sequencing errors
Summary of the method: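 Synthetic nanobody libraries on Saccharomyces cerevisiae BJ5465 were galactose-induced for 36–48 hours, stained 1 hour at 4 °C with 10% biotinylated, detergent-solubilized Sf9 membrane reagent and enriched on streptavidin microbeads. FACS then separated cells into low and high (top ~1%) gates by anti-HA (expression) and streptavidin (reagent binding) fluorescence. Genes were colony-PCR amplified, MiSeq 2 × 250 sequenced and CDR-length filtered. A clone's polyreactivity label is that of its gate of origin.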

Row | Sequence | polyreactivity (PSR sort gate)
1 | QVQLVESGGGLFQAGGSLRLSCAASGSIFFYNNMGWYRQAPGKERELVDAISASGGRTYYADSVKGRFTISRDNAKNSVYLQMYSLKPEDTAVYYCAVRVPYRGYTRYDYWGQGTQVTVSS | high polyreactivity
2 | QVQLVESGGGLFQAGGSLRLSCAASGSIFNRYAMGWYRQAPGKERELVAAISSGGRTKYADSVKGRFTISRDNAKNTVYLQMNSLKPEDTAVYYCNAAYFLSGTCRTFDYWGQGTQVTVSS | high polyreactivity
3 | QVQLVESGGGLFQAGGSLRLSCAASGSIFQYYTMRWYRQAPGKERELVATINNNGGRTYYADSVKGRFTISRDNAMNSVYFQMYSLKPVDTAVYYCATDIWRYYRGWEDYWGQGTEVTVSS | high polyreactivity
4 | QVQLVESGGGLFQAGGSLRLSCAASGSIFRDNVMVWYIHAPGKERELVAVITSGGSTNYADSVKGRFTISRDNAKNTVYLQMNSLKPEDTAVYYCNAAKTGSQSRLEYWGQGTQVTVSS | high polyreactivity
5 | QVQLVESGGGLFQAGGSLRLSCAASGSIFSWNDMGWYRQAPGKERELVAAINWNGGSTYYADSVKGRFTISRDNEKNSVYLQMNSLKPEYSEVYYCAAERSLYYVYSREYWGQGTQVTVSS | low polyreactivity
6 | QVQLVESGGGLFQAGGSLRLSCAASGSIFTPNTMGWYRKAPGKERELVAAITIRGGSTYYADSLKGRFTISRDNAKNTVYLQMNSLKPEDTAVYYCATEYALRYYLVDYWGQGTQVTVSS | low polyreactivity
7 | QVQLVESGGGLFQAGGSLRLSCAASGSIINIYAMGWYRQAPGKERELVATITGIADSTYYADSVKGRFTISRDNAKNTVYLQMNSLKPEDTAVYYCAADKYVADYDYWGQGSQVTVSS | low polyreactivity
8 | QVQLVESGGGLFQAGGSLRLSCAASGSTFWFNAMGWYRQAPGKERELVAAITSGDGTNYADSVKGRFTISRDNAKNTVYLQMNSLKPEVTAVYYCATVYADESGIEGYSWGQGTQVTVSS | low polyreactivity
9 | QVQLVESGGGLFQAGGSLRLSCADSGSTFSLYAMGWDRQAPGKDRELVAAITWSGGSTYYADSEKGRFTISRDNAKTTVYLQMTSLPPEDTAVYYCAAHRIGYYLRVSYRGKYDHWGQGTQVTVSS | low polyreactivity
10 | QVQLVESGGGLFQAGGSLRLSCAPSGRIFTTYAMGWYRQAPGKDRELVAAISRSGGSSYYADSVKGRFTISRDNAKNTVYLQMKSLKQEDTAVYFCAAVPTSNSFRSSFYNWGQGTQVTVSS | high polyreactivity
11 | QVQLVESGGGLFQAGGSLRLSCAPSGRTFDYNAMGWYRQAPGKERELVAAISGSGTRTFYADSVKGRFTISRDNAKNTVYLQMNSLKPEDTAVYYCAASHGWSKSIFYYWGQGTQVTVSS | high polyreactivity
12 | QVQLVESGGGLFQAGGSLRLSSAASGRIIRRNAMGWYRQAPGKEWDLDAAITSSGGNTYYADSVKGRFTISRDNAKNTVYLQMNSLKPEDSAVYYCATYPGNWDLDYWGQGTQVTVSS | high polyreactivity
13 | QVQLVESGGGLFQAGGSLRLSSAASGTRYYAMGWYRPAPGKERELVAGIRWRDGGTYYADSVKGRFTISRDNAKNTFYLQLNSLKPEDTAVYYCNASVTSWYKRAGYYWGQGSQVTVSS | high polyreactivity
14 | QVQLVESGGGLFQAGGSLRLTCAASGFTFIKYSMGWYRQAPGKEREFVATISWNGGNTYYADSVKGRFTISRDNAKNTVYLQMNSLKPEVTAVYYCAARVKYRTRGGTVVSYDYWGQGTQVTVSS | high polyreactivity
15 | QVQLVESGGGLFQAGGSLRLTCAASGITFYYYAMGWYRQAPGKERELVAAISVRGTRTFYADCVKWRFTISRDNAKNTVYLQMNSLKPEDTEVYYCNKSVSNDDGLEYWGQGTQVTVSS | high polyreactivity
16 | QVQLVESGGGLFQAGGSLSLSCAATGIIFRSYAMGWYRQAPGKEREMVAAITRSGGSTYADSVKGRFTISRDNAKNTVDLQMNSLKPEDTAVYYCAADRYSGWVYRRDYWGQGTQVTVSS | low polyreactivity

Row | Sequence | polyreactivity (PSR sort gate)
17 | QVQLVESGGGLFQAGGTLRLSCAASGRIFVYYAMGWYRQAPGKERELVASITTGGRTYYADSVKGRFTISRDNAKNTVYLQMNSLKPEDTAVYYCAARKYSYTWYDYWGQGTQVTVSS | high polyreactivity
18 | QVQLVESGGGLFQAGGTLRLSCASSGLIFSRYAMGWYRQSPGKEWELVAGISTSGGRTYYADSVKGRFTISRYNAKNTVYFQMNSLKPEDTAVYYCAAQFKYRQINSYLLGDYWGQGTQVTVSS | high polyreactivity
19 | QVQLVESGGGLFQAGVSLRLSCAASGLIFYGNAMGWYRQAPGKERELVAAITGGGGNTYYADSVKGRFTISRYYAKITVYLQMNSLKPEDTAVYYCATATSTAYVRYYYWGQGTQVTVSS | high polyreactivity
20 | QVQLVESGGGLFQEGGSLRLICAASGFTFSGYAMGWYRQAPGKERELVDAISSSGGSTYYADSVKGRFTISRDNAKNTVYLQMNSLKPEDTAVYYCYDRSRYYPGYSRFFYWGQGTQVTVSS | high polyreactivity
21 | QVQLVESGGGLFQEGGSLRLSCAASGRIFYGYGMGWYRQAPGKERELVAAITWSGSRTYYADSVKGRFTISRDNAKNTVYVQMNSLKPEDTAVYYCAARIPSDGYYYWGQGTQVTVSS | high polyreactivity
22 | QVQLVESGGGLGQAGGSLLLSCAASGSTFKYNAMGWNRKAPGKERELVPAISRGGRTNYADSVKGRFKISRDNAKNTVYLQMNSLKPEDTAVYYCAKDVAGLFHVGALYYYWGQGTQVTVSS | low polyreactivity
23 | QVQLVESGGGLGQAGGSLRLSCAASGFIFTFYAMGWNRQAPGKERELVAAISWSGGSTYYADSVKGRFTISHDNAKNTVYLQMNSLKPEDTAVYSCNAQHARGYYYWGQGTQVTVSS | low polyreactivity
24 | QVQLVESGGGLGQAGGSLRLSCAASGFTFPWYAMGWYRPAPGKERELVASISYRGDSTYYADSVKGRFTISRDNAKNTVYLEMNSLKPEDTAVYYCNNSLASYYLPGFDYWGQGTQVTVSS | low polyreactivity
25 | QVQLVESGGGLGQAGGSLRLSCAASGFTFRYYAMGWSRQAPGKERELVAAITGSGGRTYYADSVKGRFTISRDNAKNTVYLQKNSLKPEDSAVYYCARDVDPRGRYYWGQGTQVTVSS | high polyreactivity
26 | QVQLVESGGGLGQAGGSLRLSCAASGRIFAGYAMGWYRQAPGKERELVAAISWSGSSTHYADSVKGRFTISRDNAKNTVYFQMNSLKPEDTAVYYCAADLKDTRLFPWFFEYDYWGQGTQVTVSS | low polyreactivity
27 | QVQLVESGGGLGQAGGSLRLSCAASGRIFRGYAMGWYRQAPGTDRELVATISAIGGSTYADSVKGRFTIARDNAKNTVYLQMNSLKPEDTAVYYCNKVHFRPRYFLRSDYWGQGTQGTVSS | high polyreactivity
28 | QVQLVESGGGLGQAGGSLRLSCAASGRIFRYNAMGWYRQAPGKDRELVAVITSRGGRTYYADSVKGRFTLSRDNAKNTVYLQMTSLKPEDSAVYYCTATYSGRGSTYWSGYDYWGQGTQVTVSS | high polyreactivity
29 | QVQLVESGGGLGQAGGSLRLSCAASGRTLGIYAMGWYRQAPGKERELVAAITWSGGSTYYADSVKGRFTISRDNAKNTVYLQMNSLKPEDTAVYYCNVRSGGKRRNSGRVDYWGQGTQVTVSS | low polyreactivity
30 | QVQLVESGGGLGQAGGSLRLSCAASGSIFAVNAMGWYRPAPGKERELVAGINSSGGSTHYADSVKGRFTISRDNAKNTVYFQMNSLKPEDTAVYYCAADWLRPAYYAVASLVKSDYWGQGTQVTVSS | low polyreactivity
31 | QVQLVESGGGLGQAGGSLRLSCAASGSIFGRYTMGWYRQAPGKERELVAAITLRGGSTYYADSVKGRFTISRDNAKNTVYLQMNSLKPEDTAVYYCATDGWKQSAYDYWGQGTQVTVSS | low polyreactivity
